In patent EP2481750A1 (Mayo Foundation for Medical Education and Research, dated 2012):

Target: T1, human B7-DC (human, UniProt Q9BQ51 20-273)
T1 construct: whole, on cells; also called hB7.DC; human B7-DC orthologue
T1 sequence (looked up): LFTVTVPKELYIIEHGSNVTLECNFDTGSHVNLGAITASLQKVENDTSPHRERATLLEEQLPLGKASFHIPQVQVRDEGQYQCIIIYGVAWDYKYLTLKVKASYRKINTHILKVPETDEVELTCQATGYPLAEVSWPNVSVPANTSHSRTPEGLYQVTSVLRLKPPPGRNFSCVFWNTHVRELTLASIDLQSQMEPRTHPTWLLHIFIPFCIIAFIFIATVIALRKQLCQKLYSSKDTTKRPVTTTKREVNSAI
Assay: flow cytometry on Ltk cells transiently transfected with human B7-DC

B1: sHIgM12 (pentameric human monoclonal IgM/kappa antibody, B7-DC cross-linking antibody) (antibody)
heavy: QVQLQESGPGLLKPSETLSLTCTVSGGSVSLYYWSWIRQSPGKEPEWIGYIYSSGSTDYNPSLRSRVTISLDTSNNRFSLNLRSVTAADTAVYWCARSASIRGWFDPWGQGTLVTVSSGSASAPTLFPLVSCENSPSDTSSVAVGCLAQDFLPDSITFSWKYKNNSDISSTRGFPSVLRGGKYAATSQVLLPSKDVMQGTDEHVVCKVQHPNGNKEKNVPLPVIAELPPKVSVFVPPRDGFFGNPRKSKLICQATGFSPRQIQVSWLREGKQVGSGVTTDQVQAEAKESGPTTYKVTSTLTIKESDWLSQSMFTCRVDHRGLTFQQNASSMCVPDQDTAIRVFAIPPSFASIFLTKSTKLTCLVTDLTTYDSVTISWTRQNGEAVKTHTNISESHPNATFSAVGEASICEDDWNSGERFTCTVTHTDLPSPLKQTISRPKGVALHRPDVYLLPPAREQLNLRESATITCLVTGFSPADVFVQWMQRGQPLSPEKYVTSAPMPEPQAPGRYFAHSILTVSEEEWNTGETYTCVVAHEALPNRVTERTVDKSTGKPTLYNVSLVMSDTAGTCY
light: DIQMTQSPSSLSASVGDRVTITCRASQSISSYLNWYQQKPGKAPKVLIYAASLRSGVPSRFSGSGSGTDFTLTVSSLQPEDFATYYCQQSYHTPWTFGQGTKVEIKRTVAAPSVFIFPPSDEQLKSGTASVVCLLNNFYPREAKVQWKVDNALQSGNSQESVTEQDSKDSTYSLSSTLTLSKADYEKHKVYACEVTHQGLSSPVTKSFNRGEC
notes: also called intact sHIgM12; pentameric sHIgM12
- binding result: binds
